Data taken from article PMC8808172 (The Journal of Biological Chemistry, 2021).

T1: ClpX N-terminal zinc-binding domain (ClpXN; amino acids 1–55) (E. coli, UniProt P0A6H1 1-55)
T1 sequence (looked up): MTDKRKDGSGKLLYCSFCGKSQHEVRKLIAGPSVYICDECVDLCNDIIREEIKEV

B1: ClpX(A30S) (enzyme)
chain: not shown
B2: ClpX (WT) (enzyme)
chain: not shown

Legend:
[1] = molecular target: the molecule itself; assay: SEC
[2] = molecular target: T1, ClpX N-terminal zinc-binding domain …; assay: NMR titration
[3] = molecular target: B1; assay: filter retention assay
[4] = molecular target: B2; assay: filter retention assay

Binder | stoichiometry N [1] | other results
ClpX(L12S) (enzyme) not shown | 6 | 
B1 | 6 | 
MKCPVCHQGEMVSGIKDIPYTFRGRKTVLKGIHG (domain or fragment, E. coli, UniProt Q46864 1-34, looked up) [MqsA_(1–34)] |  | binding result [2]: binds
MKCPVCHQGEMVSGIKDIPYTFRGRKTVLKGIHG (domain or fragment, E. coli, UniProt Q46864 1-34, looked up) [Gfp-MqsA_(1–34)] |  | binding result [3]: binds; binding result [4]: binds
ClpX(L13D) (enzyme) not shown | 6 | 
ClpX(L13A) (enzyme) not shown | 6 | 
ClpX(H23A) (enzyme) not shown | 6 | 
B2 | 6 | 
